Measured values from patent publication US10087225B2, “Formulation of MK2 inhibitor peptides” (MOERAE MATRIX, INC., priority 2015, dated 2018).

Legend:
Assay in all cases: Kinase Profiling Assay
Type in all cases: biochemical
Conditions in all cases: for % activity: 100 μM
KDR(h) = KDR(h) (Homo sapiens, UniProt P35968)
PRK2(h) = PRK2(h) (Homo sapiens, UniProt Q16513)
EphB4(h) = biological target: T1, EphB4(h) (Homo sapiens, UniProt P54760)
T1 sequence (P54760 16-987): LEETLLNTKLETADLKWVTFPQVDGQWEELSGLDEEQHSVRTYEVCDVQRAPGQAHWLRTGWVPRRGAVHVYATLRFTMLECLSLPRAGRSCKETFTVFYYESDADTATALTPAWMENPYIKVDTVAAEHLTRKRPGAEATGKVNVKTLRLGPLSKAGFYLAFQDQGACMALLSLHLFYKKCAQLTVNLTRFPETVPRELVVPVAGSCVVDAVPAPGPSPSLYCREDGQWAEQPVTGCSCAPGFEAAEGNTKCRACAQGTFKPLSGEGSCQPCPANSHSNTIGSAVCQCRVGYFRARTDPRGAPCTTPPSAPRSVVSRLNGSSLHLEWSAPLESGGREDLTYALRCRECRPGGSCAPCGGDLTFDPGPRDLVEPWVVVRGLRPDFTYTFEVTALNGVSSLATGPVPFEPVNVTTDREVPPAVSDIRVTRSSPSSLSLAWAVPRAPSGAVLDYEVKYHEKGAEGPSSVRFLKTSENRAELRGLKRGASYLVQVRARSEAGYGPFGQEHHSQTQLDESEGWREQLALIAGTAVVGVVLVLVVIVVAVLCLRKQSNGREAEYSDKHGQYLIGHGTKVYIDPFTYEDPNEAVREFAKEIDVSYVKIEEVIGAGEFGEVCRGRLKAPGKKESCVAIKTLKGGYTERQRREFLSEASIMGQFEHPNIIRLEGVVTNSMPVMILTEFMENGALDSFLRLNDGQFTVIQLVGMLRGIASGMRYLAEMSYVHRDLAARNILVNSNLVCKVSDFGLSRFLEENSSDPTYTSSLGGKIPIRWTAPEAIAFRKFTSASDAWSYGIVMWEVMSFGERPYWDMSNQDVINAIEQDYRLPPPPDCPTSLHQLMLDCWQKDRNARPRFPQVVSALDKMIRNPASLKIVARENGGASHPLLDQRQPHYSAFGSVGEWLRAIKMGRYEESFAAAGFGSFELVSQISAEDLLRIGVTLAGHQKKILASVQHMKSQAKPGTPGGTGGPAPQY

SRPK1(h) = SRPK1(h) (Homo sapiens, UniProt Q96SB4)
SRPK1(h), sequence (Q96SB4 whole entry): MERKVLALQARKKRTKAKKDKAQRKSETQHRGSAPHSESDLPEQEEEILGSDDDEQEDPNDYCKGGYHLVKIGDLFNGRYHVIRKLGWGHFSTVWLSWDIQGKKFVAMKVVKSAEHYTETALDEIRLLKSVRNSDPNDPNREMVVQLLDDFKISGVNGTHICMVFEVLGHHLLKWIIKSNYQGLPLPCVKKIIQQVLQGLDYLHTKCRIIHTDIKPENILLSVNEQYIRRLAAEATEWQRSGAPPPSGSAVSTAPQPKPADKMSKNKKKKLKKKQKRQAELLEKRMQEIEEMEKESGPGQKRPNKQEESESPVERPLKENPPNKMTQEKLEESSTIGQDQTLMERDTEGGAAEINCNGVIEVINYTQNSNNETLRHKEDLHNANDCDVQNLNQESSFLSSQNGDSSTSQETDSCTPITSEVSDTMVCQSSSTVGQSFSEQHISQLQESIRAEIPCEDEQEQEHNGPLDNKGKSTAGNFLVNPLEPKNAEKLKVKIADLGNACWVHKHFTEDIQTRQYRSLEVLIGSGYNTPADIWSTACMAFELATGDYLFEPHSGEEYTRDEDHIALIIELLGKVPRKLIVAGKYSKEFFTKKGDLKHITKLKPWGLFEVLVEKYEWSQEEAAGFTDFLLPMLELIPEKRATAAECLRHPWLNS

Ax1(h) = Ax1(h) (Homo sapiens, UniProt P30530)
GCK(h) = biological target: T2, GCK(h) (Homo sapiens, UniProt Q12851)
T2 sequence (Q12851 1-820): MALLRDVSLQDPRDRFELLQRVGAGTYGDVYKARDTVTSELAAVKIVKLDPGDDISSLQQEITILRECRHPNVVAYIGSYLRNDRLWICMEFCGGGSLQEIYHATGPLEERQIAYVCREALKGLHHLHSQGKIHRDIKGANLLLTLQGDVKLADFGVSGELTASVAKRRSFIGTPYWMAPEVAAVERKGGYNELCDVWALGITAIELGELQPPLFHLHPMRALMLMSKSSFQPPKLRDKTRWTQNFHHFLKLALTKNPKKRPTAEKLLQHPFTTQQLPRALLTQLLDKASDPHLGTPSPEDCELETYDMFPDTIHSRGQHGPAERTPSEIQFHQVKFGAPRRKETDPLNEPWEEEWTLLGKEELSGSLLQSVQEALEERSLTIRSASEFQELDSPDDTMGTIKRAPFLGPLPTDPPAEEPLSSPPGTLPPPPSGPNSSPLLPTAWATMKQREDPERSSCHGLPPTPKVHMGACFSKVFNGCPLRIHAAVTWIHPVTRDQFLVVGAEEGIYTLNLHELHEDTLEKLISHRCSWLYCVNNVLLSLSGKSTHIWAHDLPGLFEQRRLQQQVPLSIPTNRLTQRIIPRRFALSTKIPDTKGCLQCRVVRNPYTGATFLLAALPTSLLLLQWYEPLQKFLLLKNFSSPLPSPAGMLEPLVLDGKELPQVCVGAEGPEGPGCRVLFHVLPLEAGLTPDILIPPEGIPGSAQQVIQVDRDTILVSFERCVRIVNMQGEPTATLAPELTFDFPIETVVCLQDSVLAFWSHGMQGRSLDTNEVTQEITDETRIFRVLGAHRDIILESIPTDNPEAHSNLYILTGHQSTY

IGF-1R(h), activated = IGF-1R(h), activated (Homo sapiens, UniProt P08069)
Ret(h) = Ret(h) (Homo sapiens, UniProt P07949)
NEK3(h) = biological target: T3, NEK3(h) (Homo sapiens, UniProt P51956)
T3 sequence (P51956 1-506): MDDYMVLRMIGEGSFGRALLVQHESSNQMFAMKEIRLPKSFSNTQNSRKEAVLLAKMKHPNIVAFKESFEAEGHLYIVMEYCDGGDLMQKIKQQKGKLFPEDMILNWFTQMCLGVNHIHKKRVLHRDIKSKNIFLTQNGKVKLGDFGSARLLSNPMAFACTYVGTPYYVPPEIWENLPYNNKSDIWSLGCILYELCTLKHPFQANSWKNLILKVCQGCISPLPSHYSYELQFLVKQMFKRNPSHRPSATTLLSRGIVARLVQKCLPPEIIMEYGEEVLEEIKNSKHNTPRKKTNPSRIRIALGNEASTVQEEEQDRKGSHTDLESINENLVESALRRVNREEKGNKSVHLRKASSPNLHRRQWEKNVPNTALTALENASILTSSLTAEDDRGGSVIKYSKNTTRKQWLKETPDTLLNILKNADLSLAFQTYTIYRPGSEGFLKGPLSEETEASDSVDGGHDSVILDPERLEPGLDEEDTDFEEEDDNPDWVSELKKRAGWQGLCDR

PAK4(h) = PAK4(h) (Homo sapiens, UniProt O96013)
PAK4(h), sequence (O96013 whole entry): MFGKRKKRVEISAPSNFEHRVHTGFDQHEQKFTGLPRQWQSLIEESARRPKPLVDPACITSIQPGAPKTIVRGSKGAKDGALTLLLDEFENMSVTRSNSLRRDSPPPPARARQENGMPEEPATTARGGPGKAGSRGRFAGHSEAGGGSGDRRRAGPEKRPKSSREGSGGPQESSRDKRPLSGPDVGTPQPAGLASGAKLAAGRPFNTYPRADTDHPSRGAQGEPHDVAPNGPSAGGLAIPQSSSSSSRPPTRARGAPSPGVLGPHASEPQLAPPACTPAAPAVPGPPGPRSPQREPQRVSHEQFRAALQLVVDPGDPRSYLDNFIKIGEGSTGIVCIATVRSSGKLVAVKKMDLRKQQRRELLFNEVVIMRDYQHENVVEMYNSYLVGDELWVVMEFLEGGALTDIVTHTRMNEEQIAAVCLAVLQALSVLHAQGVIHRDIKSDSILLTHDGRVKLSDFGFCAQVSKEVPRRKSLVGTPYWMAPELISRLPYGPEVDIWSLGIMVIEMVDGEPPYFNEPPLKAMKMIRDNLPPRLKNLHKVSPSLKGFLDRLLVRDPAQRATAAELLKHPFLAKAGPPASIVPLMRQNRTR

KDR(h), sequence (P35968 20-1356): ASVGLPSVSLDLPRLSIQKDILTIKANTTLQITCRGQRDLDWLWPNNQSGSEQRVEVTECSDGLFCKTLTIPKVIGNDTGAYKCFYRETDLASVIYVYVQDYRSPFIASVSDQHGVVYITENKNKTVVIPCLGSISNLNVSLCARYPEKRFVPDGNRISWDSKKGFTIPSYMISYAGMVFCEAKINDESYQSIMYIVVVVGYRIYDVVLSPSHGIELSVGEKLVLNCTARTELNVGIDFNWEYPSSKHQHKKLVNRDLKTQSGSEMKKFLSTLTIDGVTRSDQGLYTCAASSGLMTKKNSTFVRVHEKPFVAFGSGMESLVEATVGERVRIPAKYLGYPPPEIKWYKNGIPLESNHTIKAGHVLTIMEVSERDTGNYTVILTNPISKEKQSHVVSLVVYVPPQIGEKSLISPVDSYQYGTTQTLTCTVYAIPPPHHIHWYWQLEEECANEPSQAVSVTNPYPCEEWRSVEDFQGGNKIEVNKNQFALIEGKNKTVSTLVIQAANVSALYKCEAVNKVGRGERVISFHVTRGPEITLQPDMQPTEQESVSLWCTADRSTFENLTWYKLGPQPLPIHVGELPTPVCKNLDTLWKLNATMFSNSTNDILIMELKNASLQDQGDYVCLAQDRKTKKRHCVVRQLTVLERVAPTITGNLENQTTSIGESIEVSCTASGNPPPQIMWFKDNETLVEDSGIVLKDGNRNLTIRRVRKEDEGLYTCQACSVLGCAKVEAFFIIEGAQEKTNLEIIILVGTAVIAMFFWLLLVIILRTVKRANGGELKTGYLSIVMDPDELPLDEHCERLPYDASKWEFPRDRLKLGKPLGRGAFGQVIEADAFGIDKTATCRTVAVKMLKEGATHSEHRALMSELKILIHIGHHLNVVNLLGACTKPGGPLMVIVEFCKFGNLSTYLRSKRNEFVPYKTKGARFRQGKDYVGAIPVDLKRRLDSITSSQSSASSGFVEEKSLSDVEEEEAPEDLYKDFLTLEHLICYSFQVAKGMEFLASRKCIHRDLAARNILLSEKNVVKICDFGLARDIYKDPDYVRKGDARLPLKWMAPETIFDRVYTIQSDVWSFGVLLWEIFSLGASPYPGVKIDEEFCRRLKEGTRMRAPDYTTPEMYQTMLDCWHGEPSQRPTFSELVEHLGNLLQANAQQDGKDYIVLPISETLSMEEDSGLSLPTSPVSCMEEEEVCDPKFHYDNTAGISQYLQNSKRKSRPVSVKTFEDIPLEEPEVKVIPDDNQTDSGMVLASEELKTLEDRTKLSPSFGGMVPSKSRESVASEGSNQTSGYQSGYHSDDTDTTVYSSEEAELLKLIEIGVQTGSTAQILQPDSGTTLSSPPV
PRK2(h), sequence (Q16513 whole entry): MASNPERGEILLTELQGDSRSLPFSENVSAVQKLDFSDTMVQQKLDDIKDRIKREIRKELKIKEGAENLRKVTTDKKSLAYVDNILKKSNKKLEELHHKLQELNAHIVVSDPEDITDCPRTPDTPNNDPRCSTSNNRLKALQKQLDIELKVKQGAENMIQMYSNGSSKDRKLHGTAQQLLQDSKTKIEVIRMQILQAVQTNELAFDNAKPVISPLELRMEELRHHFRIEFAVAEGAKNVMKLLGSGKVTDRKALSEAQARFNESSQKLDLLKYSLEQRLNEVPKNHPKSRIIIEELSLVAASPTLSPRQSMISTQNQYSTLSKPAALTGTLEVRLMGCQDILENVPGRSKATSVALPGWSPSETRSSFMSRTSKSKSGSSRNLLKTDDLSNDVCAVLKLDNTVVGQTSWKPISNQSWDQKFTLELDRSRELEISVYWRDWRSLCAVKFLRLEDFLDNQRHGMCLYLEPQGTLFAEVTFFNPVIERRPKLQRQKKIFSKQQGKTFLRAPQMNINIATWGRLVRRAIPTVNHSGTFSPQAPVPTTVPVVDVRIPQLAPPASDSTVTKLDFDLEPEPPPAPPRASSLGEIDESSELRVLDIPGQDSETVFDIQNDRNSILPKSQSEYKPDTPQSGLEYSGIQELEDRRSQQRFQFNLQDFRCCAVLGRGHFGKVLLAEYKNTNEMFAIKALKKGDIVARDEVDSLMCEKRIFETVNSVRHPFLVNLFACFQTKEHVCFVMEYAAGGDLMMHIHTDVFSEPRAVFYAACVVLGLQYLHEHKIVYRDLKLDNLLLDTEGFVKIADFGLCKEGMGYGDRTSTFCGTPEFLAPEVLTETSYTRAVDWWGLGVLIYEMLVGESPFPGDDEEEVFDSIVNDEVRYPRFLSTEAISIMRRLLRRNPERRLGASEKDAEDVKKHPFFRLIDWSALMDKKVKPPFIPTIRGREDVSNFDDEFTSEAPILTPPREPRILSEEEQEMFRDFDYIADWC

H-YARAAARQARAKALARQLGVAA-OH [MMI-0100] was tested, and the activity at 100 µM (KDR(h)) was 100%, the activity at 100 µM (PRK2(h)) was 72% and the activity at 100 µM (EphB4(h)) was 62%. The activity at 100 µM (SRPK1(h)) was 69%, the activity at 100 µM (Ax1(h)) was 81% and the activity at 100 µM (GCK(h)) was 98%. For the same substance, the activity at 100 µM (IGF-1R(h), activated) was 126%, the activity at 100 µM (Ret(h)) was 108% and the activity at 100 µM (NEK3(h)) was 100%. It also gave an activity at 100 µM (PAK4(h)) of 92%.
“YARAAARQARAKALNRQLGVA (Mammalian) [MMI-0200]” was tested, and the “% activity” value (KDR(h)) was 110%, the “% activity” value (PRK2(h)) was 74% and the “% activity” value (EphB4(h)) was 131%. The “% activity” value (SRPK1(h)) was 93%, the “% activity” value (Ax1(h)) was 99% and the “% activity” value (GCK(h)) was 99%. The “% activity” value (IGF-1R(h), activated) was 94%, the “% activity” value (Ret(h)) was 96% and the “% activity” value (NEK3(h)) was 100%. The “% activity” value (PAK4(h)) was 98%.
In the case of “HRRIKAWLKKIKALARQLGVAA (Mammalian) [MMI-0500]”, the “% activity” value (KDR(h)) is reported as 15%, the “% activity” value (PRK2(h)) is reported as 7% and the “% activity” value (EphB4(h)) is reported as 38%. The “% activity” value (SRPK1(h)) was 80%, the “% activity” value (Ax1(h)) was 12% and the “% activity” value (GCK(h)) was 30%. For the same substance, the “% activity” value (IGF-1R(h), activated) was 45%, the “% activity” value (Ret(h)) was 174% and the “% activity” value (NEK3(h)) was 20%. The “% activity” value (PAK4(h)) was 86%.
